The record followed here is patent US20160091504A1 (UNIVERSITE LAVAL, published 2016).

Experiment [1] deals with p65 subunit of NF-κB expressed from pCMV-p65 (Homo sapiens (Human)) (UniProt Q04206). The experiment in a line: cell-based or functional assay.
The target in experiment [2] is T1, p65 subunit of NF-κB expressed from pCMV-p65 (Homo sapiens (Human), UniProt Q04206 1-551, limits assumed). The experiment in a line: cell-based or functional assay.
Experiment [3] concerns the target T1, p65 subunit of NF-κB expressed from …. The experiment in a line: co-immunoprecipitation from transfected BV-2 cells.

Sequence of p65 subunit of NF-κB expressed from pCMV-p65 (Homo sapiens (Human)) (Q04206 whole entry S180P): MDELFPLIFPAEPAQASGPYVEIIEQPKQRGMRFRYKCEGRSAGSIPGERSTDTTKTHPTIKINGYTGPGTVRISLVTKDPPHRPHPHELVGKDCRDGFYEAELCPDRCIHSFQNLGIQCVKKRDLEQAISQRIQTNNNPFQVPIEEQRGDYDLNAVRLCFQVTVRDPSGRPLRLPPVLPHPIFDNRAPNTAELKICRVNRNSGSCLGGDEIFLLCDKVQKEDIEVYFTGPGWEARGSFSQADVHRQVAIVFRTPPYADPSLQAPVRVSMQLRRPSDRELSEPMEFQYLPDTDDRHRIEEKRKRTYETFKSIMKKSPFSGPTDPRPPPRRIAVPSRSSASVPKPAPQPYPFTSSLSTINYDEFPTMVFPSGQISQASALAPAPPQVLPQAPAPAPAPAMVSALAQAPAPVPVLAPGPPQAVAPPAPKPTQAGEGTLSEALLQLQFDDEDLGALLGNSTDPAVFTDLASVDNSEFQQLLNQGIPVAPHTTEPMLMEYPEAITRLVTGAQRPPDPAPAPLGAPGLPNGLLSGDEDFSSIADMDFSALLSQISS
T1 sequence (Q04206 whole entry S180P): as above

For “endogenous mouse TDP-43 (from UniProt Q921F2 1-414)”, in experiment [1], the decrease in NF-κB activation (4κB^wt-luc) with TDP-43 siRNA versus scrambled siRNA, 5 ng pCMV-p65 amounted to 3 fold; the decrease in NF-κB activation (4κB^wt-luc) with TDP-43 siRNA versus scrambled siRNA, 50 ng pCMV-p65 came to 2 fold; the decrease in NF-κB activation (4κB^wt-luc) with TDP-43 siRNA versus scrambled siRNA, 10 and 20 ng pCMV-p65 came out at 2.5 fold.

B1: TDP-43^ΔNR1-30 (31-81 and 98-176 AAs), N-terminal and RRM-1 deletion mutant with the NLS signal attached (other)
chain: MSEYIRVTEDENDEPIEIPSEDDGTVLLSTKRKMDETDASSAVKVKLPNSKQSQDEPLRSRKVFVGRCTEDMTEDELREFFSQYGDVMDVFIPKPFRAFAFVTFADDQIAQSLCGEDLIIKGISVHISNAEPKHNSNRQLERSGRFGGNPGGFGNQGGFGNSRGGGAGLGNNQGSNMGGGMNFGAFSINPAMMAAAQAALQSSWGMMGMLASQQNQSGPSGNNQNQGNMQREPNQAFGSGNNSYSGSNSGAAIGWGSASNAGSGSGFNGGFGSSMDSKSSGWGM
notes: The printed ranges in brackets are read as the deleted residues (31-81 and 98-176); not shown: HA (hemagglutinin) tag at the extreme C-terminus
With B1, in experiment [2], the “level of NF-κB activation detected by the 4κB^wt-luc reporter assay” value amounted to 6 fold lower. In experiment [3], the binding result was “no binding”.

B2: TDP-43^ΔN (1-105AAs), HA-tagged deletion mutant (other, not shown: small tags and cut ends)
chain: LIVLGLPWKTTEQDLKEYFSTFGEVLMVQVKKDLKTGHSKGFGFVRFTEYETQVKVMSQRHMIDGRWCDCKLPNSKQSQDEPLRSRKVFVGRCTEDMTEDELREFFSQYGDVMDVFIPKPFRAFAFVTFADDQIAQSLCGEDLIIKGISVHISNAEPKHNSNRQLERSGRFGGNPGGFGNQGGFGNSRGGGAGLGNNQGSNMGGGMNFGAFSINPAMMAAAQAALQSSWGMMGMLASQQNQSGPSGNNQNQGNMQREPNQAFGSGNNSYSGSNSGAAIGWGSASNAGSGSGFNGGFGSSMDSKSSGWGM
On to B2, for which the “NF-κB gene activation (4κB^wt-luc reporter), compared to full length TDP-43^wt” value in experiment [2] is 2 fold.
